test: yeast display, Sf9 membrane polyspecificity reagent, FACS + sequencing; frameworks hold sequencing errors
Method in brief: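 Nanobodies from a synthetic yeast display library (Saccharomyces cerevisiae BJ5465), induced 36–48 hours with galactose, were stained 1 hour at 4 °C with 10% biotinylated, detergent-solubilized Sf9 membrane reagent, enriched on streptavidin microbeads, then FACS-sorted. Anti-HA (expression) and streptavidin (reagent binding) fluorescence set low and high (top ~1%) gates. Polyreactivity labels come from the gate of origin. Genes were colony-PCR amplified, MiSeq 2 × 250 sequenced and filtered by CDR length.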

Row | Sequence | polyreactivity (PSR sort gate)
1 | QVQLVDSGGGLVQAGGSLRLSCAASGRIFQPNAMGWYRQAPGKEMEFVAAISSSGGSTFYADSVKGRFTISRDNAKNTVYLQMNSLKPEDTAVYYCAKRYGYTEYYYWGQGTQVTVSS | high polyreactivity
2 | QVQLVDSGGGLVQAGGSLRLSCAASGRIFRGYAMGWYRQAPGKERELVAAINRGSSTYYADSVKGRFTISRDNAKNTVYLQMNSLKPEDTAVYYCAVKGYLPYTGIFDYWGQGTQVTVSS | high polyreactivity
3 | QVQLVDSGGGLVQAGGSLRLSCAASGRIFRLYAMGWYRPAPGKERELVATITRSGVSTYYADSVKGRFTISRDNAKNTVYLQMNSLKPEDTAVYYCAVDRWGRYYATQYTFDYWGQGTQVTVSS | high polyreactivity
4 | QVQLVDSGGGLVQAGGSLRLSCAASGRIFSVYAMGWYRQAPGNERELVAAITRVGSTNYADSVKGRFTISRDNAKNTVYLQMNSLKPEDTAVYYCAASKYGSLSGYWGQGTQVTVSS | high polyreactivity
5 | QVQLVDSGGGLVQAGGSLRLSCAASGRISNYYAMGWYRQAPGKERELVAAITRSGGSTYYADSVKGRFTISRDNAKNTVYLQMNSLKPEDTAVYYCATDWTVRYDYWGQGTQVTVSS | high polyreactivity
6 | QVQLVDSGGGLVQAGGSLRLSCAASGRLFDRNAMGWYRQGPGKERELVARIDPGDDTNYSYSVTGRFTISRDNAKNTVYLQMNSLKPEDTAVYYCATDPDYVLYRTAYYEYDYWGKGTQVTVSS | low polyreactivity
7 | QVQLVDSGGGLVQAGGSLRLSCAASGRTFATYAMGWNRQAPGKERELVAAISSGGSTYYADSVKGRFTISRDNAKNNVYLQMNRLKPDDTAVYYCAAEVWFPDRWMDYWGQGTQVTVSS | high polyreactivity
8 | QVQLVDSGGGLVQAGGSLRLSCAASGRTFGAYDMGWYRQAPGKERELVAAISSGATTNYADSVKGRFTISRDNAKNTVYLQMNSLKPEDTAVYYCAASVYRYIYAFNYWGQGTQVTVSS | low polyreactivity
9 | QVQLVDSGGGLVQAGGSLRLSCAASGRTFGVNAMGWYRQAPGKERELVAAISSGSSTYYADSVKGRFTISRDNAKNTVYLQMNSLKPEDTAVYYCAAKYWSYYQSRSLSYRYFYWGQGTQVTVSS | low polyreactivity
10 | QVQLVDSGGGLVQAGGSLRLSCAASGRTFRHNAMGWYRQAPGKERELVATISNRGGTSYYADSVKGRFTISRDNANNTVYLQMNSLKPEDTAVYYCAARVGVLGYVRYGYWGHGTQVTVSS | low polyreactivity
11 | QVQLVDSGGGLVQAGGSLRLSCAASGRTFSSYAMGSYRQAPGKERELVAAINWSGASTYYADSVKGRFTISRDYAKNTVYLQLNSLKPEDTAVYDCAKSLYVGKFWQIRSSVDYWGQGTQVTVSS | low polyreactivity
12 | QVQLVDSGGGLVQAGGSLRLSCAASGRTFTIYAIGWYRQAPGKEREFVASITGSDGSTYYADSVKGRFTISRDNAKNTVYLQMNSLKPEDTAVYYCAAATSSAYDYWGQGTQVTVSS | low polyreactivity
13 | QVQLVDSGGGLVQAGGSLRLSCAASGRTFYAYAMGWYRQAPGKERELVATISSSDASTYYADSVKGRFTISRDNAKKTVYLLMNSLKPEDTAVYYGNADFVRPSWARGRNNGLYYWGQGTQVTVSS | low polyreactivity
14 | QVQLVDSGGGLVQAGGSLRLSCAASGRTFYWYTMGWYRQAPGKERELVAAISTRGVRTYYADSVKGRFTISRDNAKNTVYLQMNSLKPADTAVYYCNDEYNPTYYTSHDDSDYWGQGTLVTVSS | low polyreactivity
15 | QVQLVDSGGGLVQAGGSLRLSCAASGRTSIWNAMGWYRQAPGKERELVASISWSGGSTYYADSVKGRFTISRDNAKNTVYLQMNSLKPEDTAVYYCAKTGYFLVFNEHLHKKRYDSWGQGTQVTVSS | low polyreactivity
16 | QVQLVDSGGGLVQAGGSLRLSCAASGRTSYENAMGWYREAPGKERELVAAINVSGGSTYYADSVKGRFTISRDNAKNTVYLQMNSLKPEDTAVYYCAADNPYADARSSWYEYNDWGQGTQVTVSS | high polyreactivity
17 | QVQLVDSGGGLVQAGGSLRLSCAASGRTYDTNAMGWNRQAPRKETELVAVITARGGNTSYADSVKGRFTISRDNAKNTVYLQMNSLKPEDTAVYYCAALYFKVGYYTYEYWGQGTQVTVSS | low polyreactivity
18 | QVQLVDSGGGLVQAGGSLRLSCAASGRTYTYYAMGWYRQAPGKERELVAAISKSGGSTYYADSVKGRFTISRDNAKNTVYLQMNSLKPEDTAVYYFAKVYRYSSLYYYWGQGTQVTVSS | low polyreactivity
19 | QVQLVDSGGGLVQAGGSLRLSCAASGSIFDFYAMGWYRQAPGTERELVAAINSGGSTNYADSVKGRFTISRDNAKNTVYLQMNSLTPEDTAVYYCAARHPPYRGGYWGQGTQVTVSS | low polyreactivity
20 | QVQLVDSGGGLVQAGGSLRLSCAASGSIFEINAMGWYRQAPGKERELVAVITDSGSTYYEDSVKGRFTISRDNAKNTVDLQMNSLKPEDTAVYYCAAEYSLLFFLMDYWGQGTQVTVSS | low polyreactivity

Row | Sequence | polyreactivity (PSR sort gate)
21 | QVQLVDSGGGLVQAGGSLRLSCAASGSIFGQYTMGWYRQAPGKERELVAAINSSGDSTFYADSVKGRFTISRDNAKNTVYLQMNSLKPEDTAVYFCAADPYRYYFRAYGWHREGYYWGQGTQVTVSS | low polyreactivity
22 | QVQLVDSGGGLVQAGGSLRLSCAASGSIFPPYAMGWYRQAPGKERELVAAITRSGGSTYYADSVKGRFTISRDNAKNTVYLQMNSLKPEDTAVYYCAARYPGGYGYWGQGTQVTVSS | high polyreactivity
23 | QVQLVDSGGGLVQAGGSLRLSCAASGSIFRYNDMGWYRQAPGKERELVATITSGTNTYYADSVKGRFTISRDNEKNTVYLQMNSLKPEDTAVYYCAAGYPSWYYGYPYDSWGQGTQVTVSS | low polyreactivity
24 | QVQLVDSGGGLVQAGGSLRLSCAASGSIFRYYAMGWYRQAPGKEREFVAAINTNDAGTYYADSVKGRFTISRDNAKNTVYLQMNSLKPEDTAVYYCAADTGYPFWYDYWGQGTQVTVSS | high polyreactivity
25 | QVQLVDSGGGLVQAGGSLRLSCAASGSIFRYYAMGWYRQAPGKEREFVAAITYSGGSTHYADSVKGRFTISRDNEKNTVYLQMNSLKPEDTAVYYCAADYYWRVHYGYWGLGTQVTVSS | high polyreactivity
26 | QVQLVDSGGGLVQAGGSLRLSCAASGSIFSFYAMGGSRQAPGKERELVAAIDGGGSTDYADSVKGRFTISRDHAKYTVYLQMNSLKPEDTAVYDCAARDIYHYDWGQGTQVTVSS | low polyreactivity
27 | QVQLVDSGGGLVQAGGSLRLSCAASGSIFVRYTMGWYRQAAGKERELVAGIRTNGSSTYYADSVKGRFTISRDNAKNTVYLQMNSLKPEDTAVYYCAARLYRYFRQYDYWGQGTQVTVSS | low polyreactivity
28 | QVQLVDSGGGLVQAGGSLRLSCAASGSIFYPYAMGWYRQAPGKEREFVAGITTRGGSTYYADSVKGRFTISRDNAKNTVYLQMNSLKPEDTAVYYCAAYSSVWPNFGYWGQGTQVTVSS | high polyreactivity
29 | QVQLVDSGGGLVQAGGSLRLSCAASGSIFYQYAMGWYRQAPGKQRELVAAISRSGGSTYYADSVKGRFTISRDNAKNTVYLQMISLKPEDTAVYYCAARAVRAAYDYWGLGTQVTVSS | low polyreactivity
30 | QVQLVDSGGGLVQAGGSLRLSCAASGSIFYTNAMGWYRQAPGKERELVAAISYGGTTTYADSVKGRFTISRDNAKNTVYLQMNSLKPEDTAVYYCNADWLYYGYWGYGHIWYDYWGQGTQVTVSS | low polyreactivity
31 | QVQLVDSGGGLVQAGGSLRLSCAASGSIFYYYAMVWYRQAPGKERELVAAISRNGGSTSYADSVKGRFTISRDNAKNTVYLQMNSLKPEDTAVYYCAVRKFHYFRYEYWGQGTQVTVSS | low polyreactivity
32 | QVQLVDSGGGLVQAGGSLRLSCAASGSILAGNVMGWYRQAPGKERELVASITFRGSRTYYADSVKGRFTISRDNAKNTVYLQMNSLKPEDTAVYYCNADVWASGSRGEGYWGQGTQVTVSS | low polyreactivity
33 | QVQLVDSGGGLVQAGGSLRLSCAASGSILAINTMGWYRPAPGKEREFVAAISAGGTSTYYADSVKGRFTISRDNAKNTVSLQMNSLKPEDTAVYYCAAIFIIYRTGYRRYYWGQGTQVTVSS | high polyreactivity
34 | QVQLVDSGGGLVQAGGSLRLSCAASGSILYPYAMGWDRQAPGKEREFVAAITYGGGRTYYADSVKGRFTISRDNAKNTVYLQMNSLKPEDTAVYYCAAKSVYAGRRRIYYLWYDYWGQGTQVTVSS | high polyreactivity
35 | QVQLVDSGGGLVQAGGSLRLSCAASGSIYGFYAMGWYRQAPGKERELVATIRTSGGNTYYADSVKGRFTISRDNAKNTVYLQLKSMKPEDTAVYYCAAAGYLYSGDVHYLYTYEYWGQRTQVTVSS | low polyreactivity
36 | QVQLVDSGGGLVQAGGSLRLSCAASGSTFDGNTMGWYRQAPGKERELVATITNSGGNTYYADSVKGRFTISRDNAKNTVYLQMNSLKPEDTAVYYCNARRTSWRRLGNFYYWGQGTQVTVSS | high polyreactivity
37 | QVQLVDSGGGLVQAGGSLRLSCAASGSTFITNTMGWDRQSPGKDRELVAAISQSGTRTYYANSVKGRFTISRDNAKNTVYLQMNSLKPEDTAVYYCAADRQRYTSSSRKGLGYCGQGTQVTVSS | high polyreactivity
38 | QVQLVDSGGGLVQAGGSLRLSCAASGSTFRLYAMGWYRQAPGKERALVAAITRGGITYYADSVKGRFTISRDNAKNTVYFQMNSLKPEDTAVYYCAATTFGPYALYPRYYYWGQGTQVTVSS | high polyreactivity
39 | QVQLVDSGGGLVQAGGSLRLSCAASGSTFRRNAMGWYRQAPGKERELVAAITSSGGGSTYYADSVKGRFTISRDNAKNSVYLQMNSLKPEDSAVYYCAKDFWYRSYDYWGQGTQVTVSS | low polyreactivity
40 | QVQLVDSGGGLVQAGGSLRLSCAASGSTFTYNSMGGYRQAPGKERELVAAITWSSDITYYADSVKGRFTISRDNAKNTVYLQMNSLIAEDTAVYYCAAYLFGPSIDDYPAFYYDYGYWGQGTQVTVSS | low polyreactivity

Source: the nanobody polyreactivity screen of Harvey et al. (2022)
